{"source": "paper PMC11347170", "about": "“Staphylococcal exoribonuclease YhaM destabilizes ribosomes by targeting the mRNA of a hibernation factor”", "key": {"[1]": {"target": "His6-YhaM^WT, recombinant wild-type S. aureus 3'-5' exoribonuclease YhaM (Staphylococcus aureus USA300 JE2)", "assay": "SEC; 60 uM YhaM on HiPrep 16/60 Sephacryl S-100 HR, buffer B (40 mM HEPES pH 7.5, 0.5 M KCl, 10% glycerol); size by gel filtration standard"}, "[2]": {"target": "His6-YhaM^WT, recombinant wild-type S. aureus 3'-5' exoribonuclease YhaM (Staphylococcus aureus USA300 JE2)", "assay": "mass photometry; TwoMP mass photometer, 30 nM protein, 50 mM Na-Tricine pH 8.0, 100 mM KCl without metal or with 1 mM MnSO4, MgSO4 or CoSO4"}, "[3]": {"target": "YhaM^WT expressed in the S. aureus ΔyhaM mutant from a plasmid under its native promoter (Staphylococcus aureus USA300 JE2)", "assay": "cross-linking; in vivo, S. aureus ΔyhaM cells carrying pYhaM^WT (OD600 0.8), 1 mM glutaraldehyde for 1-2 h at room temperature, Western blot with anti-YhaM"}}, "note": "Several values for one entry are separate records, joined by “and”; a condition that tells them apart may be missing. Equal entries are not always repeated."}
{"substance": "His6-YhaM^WT, recombinant wild-type S. aureus 3'-5' exoribonuclease YhaM (enzyme)", "values": [{"measurement": "stoichiometry N", "setting": "[1]", "value": 6}, {"measurement": "percent of particles in a hexameric state with Mn(II)", "setting": "[2]", "value": 80, "unit": "%"}, {"measurement": "stoichiometry N", "setting": "[2]", "value": "2 and 6"}]}
{"substance": "YhaM^WT expressed in the S. aureus ΔyhaM mutant from a plasmid under its native promoter (enzyme)", "values": [{"measurement": "stoichiometry N", "setting": "[3]", "value": "6 and 2 and 4"}]}
